This passage reports peptide exchange yield results from US11352401.

The target in one assay is T1, HLA-A*24 (human).
T1 construct: MHC monomer made peptide-receptive by UV cleavage of a UV-sensitive ligand; also called peptide-receptive MHC class I monomer
The experiment in a line: UV peptide-exchange ELISA; ++++ = yield >75%. From the text: (§1) Candidate peptides for T cell based therapies according to the present invention were further tested for their MHC binding capacity (affinity). The individual peptide-MHC complexes were produced by UV-ligand exchange, where a UV-sensitive peptide is cleaved upon UV-irradiation, and exchanged with the peptide of interest as analyzed. Only peptide candidates that can effectively bind and stabilize the peptide-receptive MHC molecules prevent dissociation of the MHC complexes. To determine the yield of the exchange reaction, an ELISA was performed based on the detection of the light chain (β2m) of stabilized MHC complexes. The assay was performed as generally described in Rodenko et al. (Rodenko et al., 2006).
(§2) 96 well MAXISorp plates (NUNC) were coated over night with 2 ug/ml streptavidin in PBS at room temperature, washed 4× and blocked for 1 h at 37° C. in 2% BSA containing blocking buffer. […] Peptide-MHC monomers of the UV-exchange reaction were diluted 100-fold in blocking buffer. Samples were incubated for 1 h at 37° C., washed four times, incubated with 2 ug/ml HRP conjugated anti-β2m for 1h at 37° C., washed again and detected with TMB solution that is stopped with […]. Absorption was measured at 450 nm.
(ELISA stands for enzyme-linked immunosorbent assay.)

Another assay addresses T2, HLA-B*07 (human).
T2 construct: MHC monomer made peptide-receptive by UV cleavage of a UV-sensitive ligand; also called peptide-receptive MHC class I monomer
Description: UV peptide-exchange ELISA; ++++ = yield >75%.
Text: as §1, §2

On to SYMVLAPVF [SYMVLAPVF (SEQ ID NO: 71)], for which the peptide exchange yield with HLA-A*24 was > 75%.

With SARLATDAL [SARLATDAL (SEQ ID NO: 241)], the peptide exchange yield in the assay with HLA-B*07 is > 75%.

As to YPRGNHWAVGHL [YPRGNHWAVGHL (SEQ ID NO: 228)], the peptide exchange yield with HLA-B*07 is > 75%.

Regarding YVPSASLFML [YVPSASLFML (SEQ ID NO: 239)], the peptide exchange yield with HLA-B*07 was > 75%.

On to RFLPSPVVI [RFLPSPVVI (SEQ ID NO: 82)], for which the peptide exchange yield with HLA-A*24 was > 75%.

As to RPRALRDLQL [RPRALRDLQL (SEQ ID NO: 231)], the peptide exchange yield with HLA-B*07 was > 75%.

With TYCQNIKEF [TYCQNIKEF (SEQ ID NO: 83)], in the assay with HLA-A*24, the peptide exchange yield is > 75%.

Take KYVKVFDKF [KYVKVFDKF (SEQ ID NO: 384)]: the peptide exchange yield in the assay with HLA-A*24 was > 75%.

For the molecule VYDQYFITL [VYDQYFITL (SEQ ID NO: 74)], in the assay with HLA-A*24, the peptide exchange yield is > 75%.

As to VYNDHSIYVW [VYNDHSIYVW (SEQ ID NO: 386)], in the assay with HLA-A*24, the peptide exchange yield was > 75%.

With IMPEKFEFW [IMPEKFEFW (SEQ ID NO: 69)], the peptide exchange yield in the assay with HLA-A*24 was > 75%.

Regarding FPYVRDFVM [FPYVRDFVM (SEQ ID NO: 244)], in the assay with HLA-B*07, the peptide exchange yield was > 75%.

For the molecule VPDVAQFVL [VPDVAQFVL (SEQ ID NO: 221)], the peptide exchange yield in the assay with HLA-B*07 was > 75%.

Take RAKNAGVTI [RAKNAGVTI (SEQ ID NO: 234)]: the peptide exchange yield with HLA-B*07 was > 75%.

Turning to TYSKKHFRI [TYSKKHFRI (SEQ ID NO: 381)], the peptide exchange yield with HLA-A*24 is > 75%.

On to KPGPPWAAF [KPGPPWAAF (SEQ ID NO: 238)], for which the peptide exchange yield in the assay with HLA-B*07 is > 75%.

Turning to RYEGILYTI [RYEGILYTI (SEQ ID NO: 72)], the peptide exchange yield in the assay with HLA-A*24 was > 75%.

Regarding SPRMSGLLSQT [SPRMSGLLSQT (SEQ ID NO: 226)], in the assay with HLA-B*07, the peptide exchange yield was > 75%.

VYSDLHAFYY [VYSDLHAFYY (SEQ ID NO: 375)]: the peptide exchange yield with HLA-A*24 is > 75%.

With SPRWLPVSL [SPRWLPVSL (SEQ ID NO: 242)], in the assay with HLA-B*07, the peptide exchange yield is > 75%.

With VYVGAVNRI [VYVGAVNRI (SEQ ID NO: 377)], the peptide exchange yield with HLA-A*24 was > 75%.

On to TWFPKTPMLF [TWFPKTPMLF (SEQ ID NO: 78)], for which the peptide exchange yield with HLA-A*24 was > 75%.

Regarding SPREVTTVL [SPREVTTVL (SEQ ID NO: 240)], in the assay with HLA-B*07, the peptide exchange yield is > 75%.

Turning to MYINEVERL [MYINEVERL (SEQ ID NO: 385)], in the assay with HLA-A*24, the peptide exchange yield is > 75%.

As to IYQQIIQTY [IYQQIIQTY (SEQ ID NO: 68)], in the assay with HLA-A*24, the peptide exchange yield is > 75%.

MPLKHYLLL [MPLKHYLLL (SEQ ID NO: 235)]: the peptide exchange yield with HLA-B*07 is > 75%.

YPKDIYSSF [YPKDIYSSF (SEQ ID NO: 223)]: in the assay with HLA-B*07, the peptide exchange yield was > 75%.

Take KPYQGNPTF [KPYQGNPTF (SEQ ID NO: 233)]: in the assay with HLA-B*07, the peptide exchange yield was > 75%.

Regarding VYPASKMFPFI [VYPASKMFPFI (SEQ ID NO: 65)], the peptide exchange yield with HLA-A*24 is > 75%.

As to SPSVSQLSVL [SPSVSQLSVL (SEQ ID NO: 220)], in the assay with HLA-B*07, the peptide exchange yield was > 75%.

For LYQEILAQL [LYQEILAQL (SEQ ID NO: 62)], the peptide exchange yield in the assay with HLA-A*24 is > 75%.

On to NYAIFDEGHML [NYAIFDEGHML (SEQ ID NO: 64)], for which the peptide exchange yield with HLA-A*24 was > 75%.

In the case of LPFDGPGGIL [LPFDGPGGIL (SEQ ID NO: 225)], the peptide exchange yield with HLA-B*07 was > 75%.

For the molecule RYLADLPTL [RYLADLPTL (SEQ ID NO: 79)], the peptide exchange yield with HLA-A*24 is > 75%.

Consider YPRGNHWAVGH [YPRGNHWAVGH (SEQ ID NO: 227)], for which, in the assay with HLA-B*07, the peptide exchange yield was > 75%.

On to LYPEGLRLL [LYPEGLRLL (SEQ ID NO: 81)], for which the peptide exchange yield with HLA-A*24 was > 75%.

In the case of VMPSDSFFF [VMPSDSFFF (SEQ ID NO: 63)], the peptide exchange yield with HLA-A*24 was > 75%.

Turning to RPRALRDLQLL [RPRALRDLQLL (SEQ ID NO: 232)], the peptide exchange yield in the assay with HLA-B*07 was > 75%.

For the molecule GPQPWHAAL [GPQPWHAAL (SEQ ID NO: 224)], the peptide exchange yield with HLA-B*07 was > 75%.

For the molecule NYIYSISVF [NYIYSISVF (SEQ ID NO: 75)], the peptide exchange yield in the assay with HLA-A*24 was > 75%.

In the case of KFLGPAEHLTF [KFLGPAEHLTF (SEQ ID NO: 378)], the peptide exchange yield with HLA-A*24 is > 75%.

Turning to RPIENRILIL [RPIENRILIL (SEQ ID NO: 243)], the peptide exchange yield with HLA-B*07 is > 75%.

As for RVRGGEDGDRAL [RVRGGEDGDRAL (SEQ ID NO: 236)], the peptide exchange yield with HLA-B*07 is > 75%.

Turning to IYFRDSSFL [IYFRDSSFL (SEQ ID NO: 66)], the peptide exchange yield with HLA-A*24 is > 75%.

Consider RYPGKFYRV [RYPGKFYRV (SEQ ID NO: 67)], for which the peptide exchange yield with HLA-A*24 was > 75%.

On to YYSPLRDLL [YYSPLRDLL (SEQ ID NO: 80)], for which the peptide exchange yield with HLA-A*24 is > 75%.

For TPLPAVIVL [TPLPAVIVL (SEQ ID NO: 246)], the peptide exchange yield in the assay with HLA-B*07 was > 75%.

PYTNYTFDF [PYTNYTFDF (SEQ ID NO: 70)]: in the assay with HLA-A*24, the peptide exchange yield was > 75%.

With KYVKDFHKF [KYVKDFHKF (SEQ ID NO: 376)], the peptide exchange yield with HLA-A*24 is > 75%.
